Experimental data as given in patent US10799597B2, “Subcutaneous administration of antibody-drug conjugates for cancer therapy” (Immunomedics, Inc., priority 2017, dated 2020).

Tests used:
[1] = Phase I/II trial of IMMU-132: MTD and toxicity profile; type: in vivo, human; settings: 75 patients in the full trial
Procedure: Patients with metastatic cancers were enrolled after failing standard therapy, starting at a dose of 8.0 mg/kg given on days 1 and 8 of a 3-week cycle.

[2] = test system: BxPC-3; assay: Signaling events (p21Waf1/Cip1, p53) in BxPC-3 cells; type: cell-based, human
From the text: SN-38 is known to activate several signaling pathways in cells, leading to apoptosis (e.g., Cusack et al., 2001, Cancer Res 61:3535-40; Liu et al. 2009, Cancer Lett 274:47-53; Lagadec et al., 2008, Br J Cancer 98:335-44). Our initial studies examined the expression of 2 proteins involved in early signaling events (p21^Waf1/Cip1 and p53) and 1 late apoptotic event [cleavage of poly-ADP-ribose polymerase (PARP)] in vitro (not shown).

[3] = Tolerability in Cynomolgus monkeys; type: in vivo, Cynomolgus monkeys (Macaca fascicularis)
Procedure: FIG. 5C. Tolerability of hRS7-CL2A-SN-38 in Cynomolgus monkeys. […] All animals were bled on day −1, 3, and 6. Four monkeys were bled on day 11 in the 0.96 mg/kg group, 3 in the 1.92 mg/kg group. Changes in neutrophil counts in Cynomolgus monkeys.
FIG. 5D. Tolerability of hRS7-CL2A-SN-38 in Cynomolgus monkeys. […] All animals were bled on day −1, 3, and 6. Four monkeys were bled on day 11 in the 0.96 mg/kg group, 3 in the 1.92 mg/kg group. Changes in platelet counts in Cynomolgus monkeys.

[4] = test system: triple-negative breast cancer; assay: Subcutaneous IMMU-132 in triple-negative breast cancer patients (Example 10); type: in vivo, human
Procedure: Maintenance doses of ADC are administered i.v. or s.c. every two to three weeks or monthly after induction. Alternatively, induction may occur with two to four cycles of i.v. administration at 8-10 mg/kg (each cycle with ADC administration on Days 1 and 8 of two 21-day cycles with a one-week rest period in between), followed by s.c. administration as active dosing one or more times weekly or as maintenance therapy. Dosing may be adjusted based on interim tumor scans and/or by analysis of Trop-2 positive circulating tumor cells.

For “IMMU-132: ADC of the humanized hRS7 anti-Trop-2 antibody conjugated by a pH-sensitive linker (CL2A) to SN-38”, the “Grade 3 diarrhea” value [1] was 6.7%, the “Grade 3 neutropenia” value [1] was 17.3% and the “Grade 4 neutropenia” value [1] was 2.7%. For the same substance, the “time of p53 upregulation” value [2] was no more than 24 h, the blood count values ([3]; 2×0.96 mg SN-38/kg, transient decreases) was “did not fall below normal ranges” and the “MTD, human equivalent dose” value ([3]; cynomolgus monkey, in vivo) was 2×0.3 to 0.6. For the same substance, the “localized reaction at the administration site” value ([4]; s.c.) was “no adverse localized reaction is observed” and the “average decrease in tumor volume” value ([4]; s.c. 2 to 4 mg/kg schedules, after two cycles of therapy) was 35%.
